Tests used:
[1] = molecular target: Recombinant human OGG1 (6X-His tagged) (human, UniProt O15527 1-345); test: cell-based or functional assay
[2] = molecular target: Recombinant human Pol β (6X-His tagged) (human, UniProt P06746 1-335); test: cell-based or functional assay

Chain of Recombinant human OGG1 (6X-His tagged) (O15527 whole entry): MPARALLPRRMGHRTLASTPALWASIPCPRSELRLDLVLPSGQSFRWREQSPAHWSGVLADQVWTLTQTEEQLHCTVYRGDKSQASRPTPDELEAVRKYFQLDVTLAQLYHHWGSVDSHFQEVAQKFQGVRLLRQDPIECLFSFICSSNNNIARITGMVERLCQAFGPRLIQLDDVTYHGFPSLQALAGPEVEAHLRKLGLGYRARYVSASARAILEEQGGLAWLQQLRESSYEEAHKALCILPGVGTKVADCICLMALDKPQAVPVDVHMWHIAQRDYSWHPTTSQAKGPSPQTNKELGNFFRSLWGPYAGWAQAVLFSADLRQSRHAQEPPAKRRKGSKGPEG

B1: FLAG-CTC1 (natural protein, human, UniProt Q2NKJ3 1-1217, looked up)
chain: MAAGRAQVPSSEQAWLEDAQVFIQKTLCPAVKEPNVQLTPLVIDCVKTVWLSQGRNQGSTLPLSYSFVSVQDLKTHQRLPCCSHLSWSSSAYQAWAQEAGPNGNPLPREQLLLLGTLTDLSADLEQECRNGSLYVRDNTGVLSCELIDLDLSWLGHLFLFPRWSYLPPARWNSSGEGHLELWDAPVPVFPLTISPGPVTPIPVLYPESASCLLRLRNKLRGVQRNLAGSLVRLSALVKSKQKAYFILSLGRSHPAVTHVSIIVQVPAQLVWHRALRPGTAYVLTELRVSKIRGQRQHVWMTSQSSRLLLLKPECVQELELELEGPLLEADPKPLPMPSNSEDKKDPESLVRYSRLLSYSGAVTGVLNEPAGLYELDGQLGLCLAYQQFRGLRRVMRPGVCLQLQDVHLLQSVGGGTRRPVLAPCLRGAVLLQSFSRQKPGAHSSRQAYGASLYEQLVWERQLGLPLYLWATKALEELACKLCPHVLRHHQFLQHSSPGSPSLGLQLLAPTLDLLAPPGSPVRNAHNEILEEPHHCPLQKYTRLQTPSSFPTLATLKEEGQRKAWASFDPKALLPLPEASYLPSCQLNRRLAWSWLCLLPSAFCPAQVLLGVLVASSHKGCLQLRDQSGSLPCLLLAKHSQPLSDPRLIGCLVRAERFQLIVERDVRSSFPSWKELSMPGFIQKQQARVYVQFFLADALILPVPRPCLHSATPSTPQTDPTGPEGPHLGQSRLFLLCHKEALMKRNFCVPPGASPEVPKPALSFYVLGSWLGGTQRKEGTGWGLPEPQGNDDNDQKVHLIFFGSSVRWFEFLHPGQVYRLIAPGPATPMLFEKDGSSCISRRPLELAGCASCLTVQDNWTLELESSQDIQDVLDANKSLPESSLTDLLSDNFTDSLVSFSAEILSRTLCEPLVASLWMKLGNTGAMRRCVKLTVALETAECEFPPHLDVYIEDPHLPPSLGLLPGARVHFSQLEKRVSRSHNVYCCFRSSTYVQVLSFPPETTISIPLPHIYLAELLQGGQSPFQATASCHIVSVFSLQLFWVCAYCTSICRQGKCTRLGSTCPTQTAISQAIIRLLVEDGTAEAVVTCRNHHVAAALGLCPREWASLLDFVQVPGRVVLQFAGPGAQLESSARVDEPMTMFLWTLCTSPSVLRPIVLSFELERKPSKIVPLEPPRLQRFQCGELPFLTHVNPRLRLSCLSIRESEYSSSLGILASSC
- OGG1 lesion removal and phosphodiester cleavage on an 8-oxo-G substrate, fold increase with purified CTC1 (250-1500 nM; value at the highest concentration) [1]: 3.1 fold
- Pol β DNA synthesis on a random sequence 66 nt gapped substrate, fold increase with purified CTC1 [2]: ~7 fold
- Pol β dRP lyase activity, fold increase with purified CTC1 (250-1500 nM; value at the highest concentration) [2]: ~7.5 fold
- Pol β strand displacement synthesis on a 6-nt gapped substrate, fold increase with purified CTC1 [2]: 3 fold

B2: Myc-STN1 (natural protein, human, UniProt Q9H668 1-368, looked up)
chain: MQPGSSRCEEETPSLLWGLDPVFLAFAKLYIRDILDMKESRQVPGVFLYNGHPIKQVDVLGTVIGVRERDAFYSYGVDDSTGVINCICWKKLNTESVSAAPSAARELSLTSQLKKLQETIEQKTKIEIGDTIRVRGSIRTYREEREIHATTYYKVDDPVWNIQIARMLELPTIYRKVYDQPFHSSALEKEEALSNPGALDLPSLTSLLSEKAKEFLMENRVQSFYQQELEMVESLLSLANQPVIHSASSDQVNFKKDTTSKAIHSIFKNAIQLLQEKGLVFQKDDGFDNLYYVTREDKDLHRKIHRIIQQDCQKPNHMEKGCHFLHILACARLSIRPGLSEAVLQQVLELLEDQSDIVSTMEHYYTAF
- OGG1 lesion removal and phosphodiester cleavage on an 8-oxo-G substrate, fold increase with purified STN1 (250-1500 nM; value at the highest concentration) [1]: 4.3 fold
- Pol β DNA synthesis on a random sequence 66 nt gapped substrate, fold increase with purified STN1 [2]: ~7 fold
- Pol β dRP lyase activity, fold increase with purified STN1 (250-1500 nM; value at the highest concentration) [2]: 8 fold
- Pol β strand displacement synthesis on a 6-nt gapped substrate, fold increase with purified STN1 [2]: 3 fold

B3: FLAG-TEN1 (natural protein)
chain: MMLPKPGTYYLPWEVSAGQVPDGSTLRTFGRLCLYDMIQSRVTLMAQHGSDQHQVLVCTKLVEPFHAQVGSLYIVLGELQHQQDRGSVVKARVLTCVEGMNLPLLEQAIREQRLYKQERGGSQ
- Pol β DNA synthesis on a random sequence 66 nt gapped substrate, fold increase with purified TEN1 [2]: ~3 fold
- Pol β dRP lyase activity, fold increase with purified TEN1 (250-1500 nM; value at the highest concentration) [2]: 1.5 fold

B4: Human CST complex (CTC1-STN1-TEN1) (complex)
chain 1: MAAGRAQVPSSEQAWLEDAQVFIQKTLCPAVKEPNVQLTPLVIDCVKTVWLSQGRNQGSTLPLSYSFVSVQDLKTHQRLPCCSHLSWSSSAYQAWAQEAGPNGNPLPREQLLLLGTLTDLSADLEQECRNGSLYVRDNTGVLSCELIDLDLSWLGHLFLFPRWSYLPPARWNSSGEGHLELWDAPVPVFPLTISPGPVTPIPVLYPESASCLLRLRNKLRGVQRNLAGSLVRLSALVKSKQKAYFILSLGRSHPAVTHVSIIVQVPAQLVWHRALRPGTAYVLTELRVSKIRGQRQHVWMTSQSSRLLLLKPECVQELELELEGPLLEADPKPLPMPSNSEDKKDPESLVRYSRLLSYSGAVTGVLNEPAGLYELDGQLGLCLAYQQFRGLRRVMRPGVCLQLQDVHLLQSVGGGTRRPVLAPCLRGAVLLQSFSRQKPGAHSSRQAYGASLYEQLVWERQLGLPLYLWATKALEELACKLCPHVLRHHQFLQHSSPGSPSLGLQLLAPTLDLLAPPGSPVRNAHNEILEEPHHCPLQKYTRLQTPSSFPTLATLKEEGQRKAWASFDPKALLPLPEASYLPSCQLNRRLAWSWLCLLPSAFCPAQVLLGVLVASSHKGCLQLRDQSGSLPCLLLAKHSQPLSDPRLIGCLVRAERFQLIVERDVRSSFPSWKELSMPGFIQKQQARVYVQFFLADALILPVPRPCLHSATPSTPQTDPTGPEGPHLGQSRLFLLCHKEALMKRNFCVPPGASPEVPKPALSFYVLGSWLGGTQRKEGTGWGLPEPQGNDDNDQKVHLIFFGSSVRWFEFLHPGQVYRLIAPGPATPMLFEKDGSSCISRRPLELAGCASCLTVQDNWTLELESSQDIQDVLDANKSLPESSLTDLLSDNFTDSLVSFSAEILSRTLCEPLVASLWMKLGNTGAMRRCVKLTVALETAECEFPPHLDVYIEDPHLPPSLGLLPGARVHFSQLEKRVSRSHNVYCCFRSSTYVQVLSFPPETTISIPLPHIYLAELLQGGQSPFQATASCHIVSVFSLQLFWVCAYCTSICRQGKCTRLGSTCPTQTAISQAIIRLLVEDGTAEAVVTCRNHHVAAALGLCPREWASLLDFVQVPGRVVLQFAGPGAQLESSARVDEPMTMFLWTLCTSPSVLRPIVLSFELERKPSKIVPLEPPRLQRFQCGELPFLTHVNPRLRLSCLSIRESEYSSSLGILASSC
chain 2: MQPGSSRCEEETPSLLWGLDPVFLAFAKLYIRDILDMKESRQVPGVFLYNGHPIKQVDVLGTVIGVRERDAFYSYGVDDSTGVINCICWKKLNTESVSAAPSAARELSLTSQLKKLQETIEQKTKIEIGDTIRVRGSIRTYREEREIHATTYYKVDDPVWNIQIARMLELPTIYRKVYDQPFHSSALEKEEALSNPGALDLPSLTSLLSEKAKEFLMENRVQSFYQQELEMVESLLSLANQPVIHSASSDQVNFKKDTTSKAIHSIFKNAIQLLQEKGLVFQKDDGFDNLYYVTREDKDLHRKIHRIIQQDCQKPNHMEKGCHFLHILACARLSIRPGLSEAVLQQVLELLEDQSDIVSTMEHYYTAF
chain 3: MMLPKPGTYYLPWEVSAGQVPDGSTLRTFGRLCLYDMIQSRVTLMAQHGSDQHQVLVCTKLVEPFHAQVGSLYIVLGELQHQQDRGSVVKARVLTCVEGMNLPLLEQAIREQRLYKQERGGSQ
- Pol β DNA synthesis on a random sequence 66 nt gapped substrate, fold increase with the CST complex [2]: ~3 fold
- Pol β dRP lyase activity, fold increase with the CST complex (7.5-45 nM; value at the highest concentration) [2]: ~10 fold

— publication PMC11864811, “Human CST Stimulates Base Excision Repair to Prevent the Accumulation of Oxidative DNA Damage” (Journal of molecular biology, 2024)
